This series concerns the molecule itself. Nature of the series: negative-stain transmission electron microscopy; reaction mixtures of 5 μM Pchlide, 15 μM AtPORB, 200 μM NADPH and either 100 μM lowMGDG lipid mixture (2.5 mol% MGDG, 47.5 mol% PG, 50 mol% DGDG) or OPT lipids; filaments seen.

B1: light-dependent protochlorophyllide oxidoreductase B from Arabidopsis thaliana (enzyme)
chain: QTAATSSPTVTKSVDGKKTLRKGNVVVTGASSGLGLATAKALAETGKWNVIMACRDFLKAERAAKSVGMPKDSYTVMHLDLASLDSVRQFVDNFRRTETPLDVLVCNAAVYFPTAKEPTYSAEGFELSVATNHLGHFLLARLLLDDLKKSDYPSKRLIIVGSITGNTNTLAGNVPPKANLGDLRGLAGGLNGLNSSAMIDGGDFDGAKAYKDSKVCNMLTMQEFHRRFHEETGVTFASLYPGCIASTGLFREHIPLFRALFPPFQKYITKGYVSETESGKRLAQVVSDPSLTKSGVYWSWNNASASFENQLSEEASDVEKARKVWEISEKLVGLA
notes: LPOR B of Arabidopsis thaliana, P21218; probably without the transit peptide, as the constructs cloned here; In the assays it stood with Pchlide, NADPH and lipids; also called AtPORB; LPOR
Regarding B1, the binding result was “binds”.
